Experimental data taken from article PMC4511216 (Genes & Development, 2015).
Where two headings read alike, the source gives them in different places. Square brackets hold non-standard residues; d marks the D form. Ends that are not written are not given here. pT = C[C@@H](OP(=O)(O)O)[C@H](N)C(=O)O

B1: human Mob1, full length, unphosphorylated, untagged (natural protein)
chain: MSFLFSSRSSKTFKPKKNIPEGSHQYELLKHAEATLGSGNLRQAVMLPEGEDLNEWIAVNTVDFFNQINMLYGTITEFCTEASCPVMSAGPRYEYHWADGTNIKKPIKCSAPKYIDYLMTWVQDQLDDETLFPSKIGVPFPKNFMSVAKTILKRLFRVYAHIYHQHFDSVMQLQEEAHLNTSFKHFIFFVQEFNLIDRRELAPLQELIEKLGSKDR

Assays:
[1] = target: PPXY-containing peptide of Lats1
[2] = target: T1, human Lats1C ΔHM (residue 602–1060) (human, UniProt O95835 602-1060); assay: SEC
T1 sequence: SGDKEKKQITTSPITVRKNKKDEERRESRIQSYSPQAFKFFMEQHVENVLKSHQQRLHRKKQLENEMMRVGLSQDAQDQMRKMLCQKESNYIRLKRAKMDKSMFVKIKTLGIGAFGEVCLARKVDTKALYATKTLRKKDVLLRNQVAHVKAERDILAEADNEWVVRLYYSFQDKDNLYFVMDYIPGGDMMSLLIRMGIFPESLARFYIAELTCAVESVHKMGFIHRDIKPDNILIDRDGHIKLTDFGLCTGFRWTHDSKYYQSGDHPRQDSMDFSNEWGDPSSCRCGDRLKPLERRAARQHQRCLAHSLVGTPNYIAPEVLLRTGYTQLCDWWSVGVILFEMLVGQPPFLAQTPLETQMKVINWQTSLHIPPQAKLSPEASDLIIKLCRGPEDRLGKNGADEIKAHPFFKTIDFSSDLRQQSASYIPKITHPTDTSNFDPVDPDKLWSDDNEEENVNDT

[3] = target: T2, human Mst2 wild type, autophosphorylated (pMst2) (human, UniProt Q13188 9-491); assay: NMR titration
T2 sequence: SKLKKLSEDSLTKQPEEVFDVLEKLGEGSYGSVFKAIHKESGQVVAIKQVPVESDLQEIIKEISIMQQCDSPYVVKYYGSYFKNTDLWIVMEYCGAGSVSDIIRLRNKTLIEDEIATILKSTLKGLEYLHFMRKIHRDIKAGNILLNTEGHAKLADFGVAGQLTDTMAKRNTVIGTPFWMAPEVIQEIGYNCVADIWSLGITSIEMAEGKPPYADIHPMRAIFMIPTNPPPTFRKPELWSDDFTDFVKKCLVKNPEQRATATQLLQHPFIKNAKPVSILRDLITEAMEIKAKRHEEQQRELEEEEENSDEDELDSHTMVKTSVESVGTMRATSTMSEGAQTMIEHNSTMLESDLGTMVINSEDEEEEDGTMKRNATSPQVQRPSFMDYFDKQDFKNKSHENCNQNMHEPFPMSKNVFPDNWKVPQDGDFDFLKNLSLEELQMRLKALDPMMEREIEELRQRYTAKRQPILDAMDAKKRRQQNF

human Mob1 L207K = human Mob1 L207K (human, UniProt Q9H8S9 1-216, L207K); assay: pull-down
human Mob1 H164A = human Mob1 H164A (human, UniProt Q9H8S9 1-216, H164A); assay: pull-down
human Mob1 F167A = human Mob1 F167A (human, UniProt Q9H8S9 1-216, F167A); assay: pull-down
[4] = target: B1; assay: pull-down
[5] = target: B1; assay: ITC
[6] = target: T3, human pMob1, full length, untagged (phosphorylated by Mst2) (human, UniProt Q9H8S9 1-216, phosphothreonine at 12 and 35); assay: crystal structure
T3 sequence: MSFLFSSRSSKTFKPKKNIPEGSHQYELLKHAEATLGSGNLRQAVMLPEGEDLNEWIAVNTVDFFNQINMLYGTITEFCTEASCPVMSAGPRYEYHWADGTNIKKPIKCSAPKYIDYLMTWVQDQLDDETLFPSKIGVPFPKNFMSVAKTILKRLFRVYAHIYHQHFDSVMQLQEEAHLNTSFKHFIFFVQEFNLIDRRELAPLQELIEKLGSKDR

[7] = target: B1; assay: ITC; remark: listed apart in the source

Molecule: human Sav WW domains (domain or fragment)
- Kd [1]: 156 µM

Molecule: B1
- binding result [2]: binds
- binding result [3]: binds

B2: GST-Mst2 371–427, phosphorylated with Mst2 kinase domain (domain or fragment, human, UniProt Q13188 371-427, looked up)
chain: DEEEEDG[pT]MKRNATSPQVQRPSFMDYFDKQDFKNKSHENCNQNMHEPFPMSKNVFPD
modifications: also: GST fusion
- binding result (human Mob1 L207K): binds
- binding result (human Mob1 H164A): binds
- binding result (human Mob1 F167A): binds

B3: GST-Mst2 linker fragment 376–400, phosphorylated with Mst2 kinase domain (domain or fragment, human, UniProt Q13188 376-400, looked up)
chain: DGTMKRNATSPQVQRPSFMDYFDKQ
modifications: not fully specified (N-terminus); also: phosphorylated, sites not given here
- binding result [4]: binds

B4: GST-pMst2 MBM (residues 371–401), phosphorylated (domain or fragment, human, UniProt Q13188 371-401, looked up)
chain: DEEEEDG[pT]MKRNATSPQVQRPSFMDYFDKQD
modifications: not fully specified (N-terminus)
- binding result [4]: binds

B5: human Mst2 ΔL/MBM (contains only the MBM but lacks all other linker residues) (enzyme)
chain: SKLKKLSEDSLTKQPEEVFDVLEKLGEGSYGSVFKAIHKESGQVVAIKQVPVESDLQEIIKEISIMQQCDSPYVVKYYGSYFKNTDLWIVMEYCGAGSVSDIIRLRNKTLIEDEIATILKSTLKGLEYLHFMRKIHRDIKAGNILLNTEGHAKLADFGVAGQLTDTMAKRNTVIGTPFWMAPEVIQEIGYNCVADIWSLGITSIEMAEGKPPYADIHPMRAIFMIPTNPPPTFRKPELWSDDFTDFVKKCLVKNPEQRATATQLLQHPFIKNAKPVSILRDLITEAMEIKAKRHEEQQRELEEEEDEEEEDGTMKRNATSPQVQRPSFMDYFDKQNWKVPQDGDFDFLKNLSLEELQMRLKALDPMMEREIEELRQRYTAKRQPILDAMDAKKRRQQNF
- Kd [5]: 230 nM

B6: human Lats1 602–704 (Lats1 MBD) (domain or fragment)
chain: SGDKEKKQITTSPITVRKNKKDEERRESRIQSYSPQAFKFFMEQHVENVLKSHQQRLHRKKQLENEMMRVGLSQDAQDQMRKMLCQKESNYIRLKRAKMDKSM
- binding result [6]: binds

B7: synthetic phospho-T378 Mst2 MBM peptide (peptide)
peptide: DEEEEDG[pT]MKRNATSPQVQRPSFMDYFDKQ
- Kd [7]: 119 nM
